According to patent US20230357429A1 (JANUX THERAPEUTICS, published 2023):
Where no end group is shown, it is not given here.

T1: Human TROP2 ECD (31-274 AA), biotinylated (human, UniProt P09758 31-274, biotinylated (site not stated))
T1 construct: also called tumor-associated calcium signal transducer 2; Human TROP2-biotin
T1 sequence: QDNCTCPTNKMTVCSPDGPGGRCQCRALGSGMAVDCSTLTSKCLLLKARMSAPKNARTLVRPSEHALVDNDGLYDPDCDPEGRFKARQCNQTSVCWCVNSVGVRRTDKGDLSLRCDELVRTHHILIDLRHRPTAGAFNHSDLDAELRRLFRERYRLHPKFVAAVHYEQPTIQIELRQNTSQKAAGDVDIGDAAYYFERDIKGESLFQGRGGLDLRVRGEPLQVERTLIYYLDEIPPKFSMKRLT

B1: TBD-2 (anti-TROP2 Fab, LC Q89A) (Fab, V domains shown)
VH: QVQLQQSGSELKKPGASVKVSCKASGYTFTNYGMNWVKQAPGQGLKWMGWINTYTGEPTYTDDFKGRFAFSLDTSVSTAYLQISSLKADDTAVYFCARGGFGSSYWYFDVWGQGSLVTVSS
VL: DIQLTQSPSSLSASVGDRVSITCKASQDVSIAVAWYQQKPGKAPKLLIYSASYRYTGVPDRFSGSGSGTDFTLTISSLQPEDFAVYYCAQHYITPLTFGAGTKVEIKR
B2: TBD-8 (anti-TROP2 Fab, LC P95A) (Fab, V domains shown)
VH: QVQLQQSGSELKKPGASVKVSCKASGYTFTNYGMNWVKQAPGQGLKWMGWINTYTGEPTYTDDFKGRFAFSLDTSVSTAYLQISSLKADDTAVYFCARGGFGSSYWYFDVWGQGSLVTVSS
VL: DIQLTQSPSSLSASVGDRVSITCKASQDVSIAVAWYQQKPGKAPKLLIYSASYRYTGVPDRFSGSGSGTDFTLTISSLQPEDFAVYYCQQHYITALTFGAGTKVEIKR
B3: TBD-6 (anti-TROP2 Fab, LC I93A) (Fab, V domains shown)
VH: QVQLQQSGSELKKPGASVKVSCKASGYTFTNYGMNWVKQAPGQGLKWMGWINTYTGEPTYTDDFKGRFAFSLDTSVSTAYLQISSLKADDTAVYFCARGGFGSSYWYFDVWGQGSLVTVSS
VL: DIQLTQSPSSLSASVGDRVSITCKASQDVSIAVAWYQQKPGKAPKLLIYSASYRYTGVPDRFSGSGSGTDFTLTISSLQPEDFAVYYCQQHYATPLTFGAGTKVEIKR
notes: also called TBD-6 (LC I93A mutant)
B4: TBD-9 (anti-TROP2 Fab, LC L96A) (Fab, V domains shown)
VH: QVQLQQSGSELKKPGASVKVSCKASGYTFTNYGMNWVKQAPGQGLKWMGWINTYTGEPTYTDDFKGRFAFSLDTSVSTAYLQISSLKADDTAVYFCARGGFGSSYWYFDVWGQGSLVTVSS
VL: DIQLTQSPSSLSASVGDRVSITCKASQDVSIAVAWYQQKPGKAPKLLIYSASYRYTGVPDRFSGSGSGTDFTLTISSLQPEDFAVYYCQQHYITPATFGAGTKVEIKR
B5: TBD-7 (anti-TROP2 Fab, LC T94A) (Fab, V domains shown)
VH: QVQLQQSGSELKKPGASVKVSCKASGYTFTNYGMNWVKQAPGQGLKWMGWINTYTGEPTYTDDFKGRFAFSLDTSVSTAYLQISSLKADDTAVYFCARGGFGSSYWYFDVWGQGSLVTVSS
VL: DIQLTQSPSSLSASVGDRVSITCKASQDVSIAVAWYQQKPGKAPKLLIYSASYRYTGVPDRFSGSGSGTDFTLTISSLQPEDFAVYYCQQHYIAPLTFGAGTKVEIKR
B6: TBD-19 (anti-TROP2 Fab, HC W106A) (Fab, V domains shown)
VH: QVQLQQSGSELKKPGASVKVSCKASGYTFTNYGMNWVKQAPGQGLKWMGWINTYTGEPTYTDDFKGRFAFSLDTSVSTAYLQISSLKADDTAVYFCARGGFGSSYAYFDVWGQGSLVTVSS
VL: DIQLTQSPSSLSASVGDRVSITCKASQDVSIAVAWYQQKPGKAPKLLIYSASYRYTGVPDRFSGSGSGTDFTLTISSLQPEDFAVYYCQQHYITPLTFGAGTKVEIKR
B7: TBD-10 (anti-TROP2 Fab, LC T97A) (Fab, V domains shown)
VH: QVQLQQSGSELKKPGASVKVSCKASGYTFTNYGMNWVKQAPGQGLKWMGWINTYTGEPTYTDDFKGRFAFSLDTSVSTAYLQISSLKADDTAVYFCARGGFGSSYWYFDVWGQGSLVTVSS
VL: DIQLTQSPSSLSASVGDRVSITCKASQDVSIAVAWYQQKPGKAPKLLIYSASYRYTGVPDRFSGSGSGTDFTLTISSLQPEDFAVYYCQQHYITPLAFGAGTKVEIKR
B8: TBD-3 (anti-TROP2 Fab, LC Q90A) (Fab, V domains shown)
VH: QVQLQQSGSELKKPGASVKVSCKASGYTFTNYGMNWVKQAPGQGLKWMGWINTYTGEPTYTDDFKGRFAFSLDTSVSTAYLQISSLKADDTAVYFCARGGFGSSYWYFDVWGQGSLVTVSS
VL: DIQLTQSPSSLSASVGDRVSITCKASQDVSIAVAWYQQKPGKAPKLLIYSASYRYTGVPDRFSGSGSGTDFTLTISSLQPEDFAVYYCQAHYITPLTFGAGTKVEIKR
B9: PC-9 (bispecific antibody)
light: not shown
heavy: GGVDFCGLYHWPICYQGGGGSGGLSGRSDAGSPLGLAGSGGSQVQLQQSGSELKKPGASVKVSCKASGYTFTNYGMNWVKQAPGQGLKWMGWINTYTGEPTYTDDFKGRFAFSLDTSVSTAYLQISSLKADDTAVYFCARGGFGSSYWYFAVWGQGSLVTVSSASTKGPSVFPLAPSSKSTSGGTAALGCLVKDYFPEPVTVSWNSGALTSGVHTFPAVLQSSGLYSLSSVVTVPSSSLGTQTYICNVNHKPSNTKVDKKVEPKSC
notes: anti-TROP2 D109A
B10: PC-10 (bispecific antibody)
light: GGVDFCGLYHWPICYQGGGGSSGGSAAGLLAPPGGLSGRSDAGGGGSDIQLTQSPSSLSASVGDRVSITCKASQDVSIAVAWYQQKPGKAPKLLIYSASYRYTGVPDRFSGSGSGTDFTLTISSLQPEDFAVYYCQQHYITPLTFGAGTKVEIKRTVAAPSVFIFPPSDEQLKSGTASVVCLLNNFYPREAKVQWKVDNALQSGNSQESVTEQDSKDSTYSLSSTLTLSKADYEKHKVYACEVTHQGLSSPVTKSFNRGEC
heavy: not shown
notes: anti-TROP2 D109A
B11: PC-11 (bispecific antibody)
light: not shown
heavy: GGVDFCGLYHWPICYQGGGGSSGGSAAGLLAPPGGLSGRSDAGGGGSQVQLQQSGSELKKPGASVKVSCKASGYTFTNYGMNWVKQAPGQGLKWMGWINTYTGEPTYTDDFKGRFAFSLDTSVSTAYLQISSLKADDTAVYFCARGGFGSSYWYFAVWGQGSLVTVSSASTKGPSVFPLAPSSKSTSGGTAALGCLVKDYFPEPVTVSWNSGALTSGVHTFPAVLQSSGLYSLSSVVTVPSSSLGTQTYICNVNHKPSNTKVDKKVEPKSC
notes: anti-TROP2 D109A
B12: Peptide-66 (peptide)
peptide: GSQCLGPEWEVCPY
modifications: cysteine pairing not given here; also: biotinylated, site not given here
notes: mask peptide for the CD3 scFv
B13: Peptide-75 (peptide)
peptide: GSACLGPEWEVCPY
modifications: cysteine pairing not given here; also: biotinylated, site not given here
notes: mask peptide for the CD3 scFv

Columns and labels:
[1] = target: T1, Human TROP2 ECD (31-274 AA), …; experiment: BLI (Octet), biotinylated human TROP2 ECD on SAX sensor, Fab 6.25-50 nM
[2] = target: T1, Human TROP2 ECD (31-274 AA), …; experiment: ELISA: biotinylated TROP2 captured on neutravidin plate, Fab titrated, HRP secondary antibody
[3] = target: T1, Human TROP2 ECD (31-274 AA), …; experiment: BLI (Octet), dissociation half-life from biotinylated human TROP2 ECD
[4] = target: T1, Human TROP2 ECD (31-274 AA), …; experiment: ELISA, biotinylated TROP2 ECD on neutravidin plate, Fab titrated
[5] = target: T1, Human TROP2 ECD (31-274 AA), …; experiment: ELISA, ratio of EC50 to that of TBD-1 wt
[6] = target: T1, Human TROP2 ECD (31-274 AA), …; experiment: ELISA: biotinylated TROP2 captured on neutravidin plate, Fab titrated, HRP secondary antibody; remark: listed apart in the source
[7] = target: T1, Human TROP2 ECD (31-274 AA), …; experiment: ELISA, biotinylated TROP2 ECD on neutravidin plate, Fab titrated; remark: listed apart in the source
[8] = target: T1, Human TROP2 ECD (31-274 AA), …; experiment: ELISA on immobilized TROP2
[9] = target: T2, TCE-33 (anti-CD3 scFv F240A; anti-TROP2 wt); experiment: competition ELISA, TCE on captured CD3
T2 construct: scFv on the Fab heavy chain; also called TCE-33 (F240A)

[10] = target: T3, TCE-31 (anti-CD3 scFv W238A; anti-TROP2 wt); experiment: competition ELISA, TCE on captured CD3
T3 construct: scFv on the Fab heavy chain; also called TCE-31 (W238A)

[11] = target: T4, TCE-1 (anti-CD3 scFv wt; anti-TROP2 Fab wt); experiment: competition ELISA: peptide titrated and pre-incubated with a constant concentration of TCE-1, binding of TCE-1 to plate-bound biotinylated CD3 detected
T4 construct: anti-CD3 scFv fused to the N-terminus of the anti-TROP2 Fab heavy chain; also called TCE-1 (wt)

[12] = target: T5, TCE-14 (anti-CD3 scFv F104A; anti-TROP2 wt); experiment: competition ELISA, TCE on captured CD3
T5 construct: scFv on the Fab heavy chain; also called TCE-14 (F104A)

[13] = target: T6, TCE-10 (anti-CD3 scFv R100A; anti-TROP2 wt); experiment: competition ELISA, TCE on captured CD3
T6 construct: scFv on the Fab heavy chain; also called TCE-10 (R100A)

[14] = target: T7, TCE-20 (anti-CD3 scFv S110A; anti-TROP2 wt); experiment: competition ELISA, TCE on captured CD3
T7 construct: scFv on the Fab heavy chain; also called TCE-20 (S110A)

[15] = target: T8, TCE-13 (anti-CD3 scFv N103A; anti-TROP2 wt); experiment: competition ELISA, TCE on captured CD3
T8 construct: scFv on the Fab heavy chain; also called TCE-13 (N103A)

[16] = target: T9, TCE-11 (anti-CD3 scFv H101A; anti-TROP2 wt); experiment: competition ELISA, TCE on captured CD3
T9 construct: scFv on the Fab heavy chain; also called TCE-11 (H101A)

| Binder | Kd [1] [nM] | EC50 [2] [nM] | t1/2 [3] [min] | EC50 [4] [nM] | Fold shift in EC50 relative to wt [5] [fold] | also measured |
| --- | --- | --- | --- | --- | --- | --- |
| B1 | 10.4 | 4.71 | 24 | 4.7 | 23.5 |  |
| B2 | 0.3 | 0.2 | 61 | 0.2 | 1 |  |
| B3 | 0.7 | 0.29 | 28 | 0.3 | 1.5 |  |
| B4 | 8.4 | 16.8 | 5 | 16.8 | 84 |  |
| B5 | 0.6 | 0.22 | 39 | 0.2 | 1 |  |
| B6 |  |  |  |  |  | EC50 [6]: 702 nM; EC50 [7]: 702 nM |
| B7 | 0.6 | 0.29 | 37 | 0.3 | 1.5 |  |
| B8 | 0.7 | 0.27 | 27 | 0.3 | 1.5 |  |
| B9 |  |  |  |  |  | EC50 [8]: 194 nM |
| B10 |  |  |  |  |  | EC50 [8]: 181 nM |
| B11 |  |  |  |  |  | EC50 [8]: 379 nM |
| B12 |  |  |  |  |  | IC50 [9]: 3710 nM; IC50 [10]: 51500 nM; binding result [11]: binds; IC50 [12]: 7090 nM; IC50 [13]: 13000 nM; IC50 [14]: 721000 nM; IC50 [15]: 21400 nM; IC50 [16]: 2620 nM |
| B13 |  |  |  |  |  | IC50 [9]: 7460 nM; binding result [11]: binds; IC50 [12]: 4210 nM; IC50 [13]: 4740 nM; IC50 [14]: 120000 nM; IC50 [15]: 47700 nM; IC50 [16]: 2080 nM |
